In US20130136748A1 (Ablynx, published 2013):
Read-outs that look alike come from different tables or passages of the source.

Tests used:
[1] = target: T1, human HER3-Fc (R&D Systems, 348-RB) (human, UniProt P21860 20-643); test: SPR, HER3-Fc captured by anti-Fc
T1 construct: Bought; also called hHER3-Fc; Fc-HER3; Fc part of the bought chimera not given, not described

hHER3 full length [2] = target: T2, hHER3 full length (human, UniProt P21860 20-1342); test: FACS competition with HRG1-β1-EGF, CHO-HER3
[3] = target: T3, hHER3 ECD (human HER3 extracellular domain) (human, UniProt P21860 20-643); test: ELISA, coated hHER3-ECD
T3 construct: also called recombinant HER3-ECD

hHER3 full length [4] = target: T2, hHER3 full length; test: cell-based or functional assay
hHER3 full length [5] = target: T2, hHER3 full length; test: FACS, 400 nM, competitor 23F05-biotin
hHER3 full length [6] = target: T2, hHER3 full length; test: FACS, 400 nM, competitor 04C07-biotin
hHER3 full length [7] = target: T2, hHER3 full length; test: FACS, 400 nM, competitor 18E08-biotin
hHER3 full length [8] = target: T2, hHER3 full length; test: FACS, 400 nM, competitor 17C08-biotin
hHER3 full length [9] = target: T2, hHER3 full length; test: cell-based or functional assay; remark: listed apart in the source
hHER3 full length [10] = target: T2, hHER3 full length; test: FACS, 400 nM, competitor 21B02-biotin
[11] = target: T4, cHER3ECD (Maccaca fascicularis HER3 extracellular domain) (Macaca fascicularis, UniProt P21860 20-643 (human entry)); test: ELISA, coated cHER3-ECD
T4 construct: also called cyno HER3ECD; cyno HER3-ECD
T4 chain: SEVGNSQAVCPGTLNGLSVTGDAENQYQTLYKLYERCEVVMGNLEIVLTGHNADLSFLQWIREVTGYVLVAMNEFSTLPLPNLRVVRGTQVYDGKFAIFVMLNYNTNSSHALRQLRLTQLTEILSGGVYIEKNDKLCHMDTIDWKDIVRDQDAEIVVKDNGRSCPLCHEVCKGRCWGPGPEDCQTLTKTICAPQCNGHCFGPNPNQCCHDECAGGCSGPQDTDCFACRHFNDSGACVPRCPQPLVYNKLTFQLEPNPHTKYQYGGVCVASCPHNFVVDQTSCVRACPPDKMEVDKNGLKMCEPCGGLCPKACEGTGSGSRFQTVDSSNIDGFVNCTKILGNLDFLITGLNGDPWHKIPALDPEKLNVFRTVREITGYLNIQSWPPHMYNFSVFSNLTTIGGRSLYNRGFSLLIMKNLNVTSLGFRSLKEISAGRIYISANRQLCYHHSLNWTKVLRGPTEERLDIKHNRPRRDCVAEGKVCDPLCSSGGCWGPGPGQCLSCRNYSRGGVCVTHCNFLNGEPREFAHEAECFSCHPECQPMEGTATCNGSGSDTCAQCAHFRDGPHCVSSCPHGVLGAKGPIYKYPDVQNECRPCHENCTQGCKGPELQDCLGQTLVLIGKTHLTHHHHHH

hHER3 full length [12] = target: T2, hHER3 full length; test: FACS, 400 nM, competitor 04F10-biotin
[13] = target: T1, human HER3-Fc (R&D Systems, 348-RB); test: HRG competition alphascreen
[14] = target: T1, human HER3-Fc (R&D Systems, 348-RB); test: HRG competition alphascreen; remark: listed apart in the source
hHER3 full length [15] = target: T2, hHER3 full length; test: cell-based or functional assay; remark: listed apart in the source
[16] = target: T3, hHER3 ECD (human HER3 extracellular …); test: SPR off rate on HER3-ECD, periplasmic extract
[17] = target: T1, human HER3-Fc (R&D Systems, 348-RB); test: 18G11 competition alphascreen, periplasmic extract
hHER3 full length [18] = target: T2, hHER3 full length; test: cell-based or functional assay; remark: listed apart in the source

Control Fab1
Kd [1]: 0.57 nM | kon [1]: 703000 M⁻¹ s⁻¹

Control MAb2 (antibody)
IC50 (hHER3 full length [2]): 67.2 nM

Control MAb1 (antibody)
IC50 (hHER3 full length [2]): 9.4 nM

Control Fab2
Kd [1]: 2.77 nM | kon [1]: 93400 M⁻¹ s⁻¹

B1: 05A09 (VHH)
VHH: EVQLVESGGGLVQAGGSLRLSCAASGFTFDDYAIGWFRQAPGKEREGVSCISSSDGSTVYADSVKGRFTISSDNAKNTVYLQMNSLKPEDTAVYYCAAERRRGYSDLCRFYYGMDYWGKGTQVTVSS
EC50 [3]: 1.45 nM | IC50, HRG1-β1 induced pAkt, MCF-7 (hHER3 full length [4]): 2.9e-07 M | inhibition of HRG1-β1 induced pERK1/2, MCF-7 (hHER3 full length [4]): < 50 % inhibition | % competition (hHER3 full length [5]): 10% | % competition (hHER3 full length [6]): 0% | % competition (hHER3 full length [7]): 78% | % competition (hHER3 full length [8]): 48% | IC50, HRG1-β1 induced pHER3, MCF-7 (hHER3 full length [9]): 9.12e-08 M | IC50, HRG1-β1 induced pHER3, MDA-MB468 (hHER3 full length [9]): 1.28e-07 M | % competition (hHER3 full length [10]): 22% | EC50 [11]: 1.3 nM | % competition (hHER3 full length [12]): 0%

B2: 34A04 (VHH)
VHH: EVQLVESGGGLVQAGGSLRLSCAASGFTFDDYTIGWFRQAPGKEREEISCISNNDGSTYYTNSVKGRFTISSDNAKNTVYLQMNSLKPEDTAVYYCAASPHGCWYDLIPLQADFGSWGQGTQVTVSS
EC50 [3]: 0.57 nM | IC50, HRG1-β1 induced pAkt, MCF-7 (hHER3 full length [4]): 6.26e-08 M | IC50, HRG1-β1 induced pERK1/2, MCF-7 (hHER3 full length [4]): 3.13e-07 M | % competition (hHER3 full length [5]): 97% | % competition (hHER3 full length [6]): 22% | % competition (hHER3 full length [7]): 25% | Kd [1]: 2.7 nM | kon [1]: 2.63e+06 M⁻¹ s⁻¹ | % competition (hHER3 full length [8]): 14% | IC50, HRG1-β1 induced pHER3, MCF-7 (hHER3 full length [9]): 3.02e-08 M | IC50, HRG1-β1 induced pHER3, MDA-MB468 (hHER3 full length [9]): 2.2e-08 M | % competition (hHER3 full length [10]): 99% | EC50 [11]: 0.49 nM | % competition (hHER3 full length [12]): 3%

B3: HER3MS00077 (VHH)
VHH: EVQLVESGGGLVQPGGSLRLSCAASGSIGGLNAMAWYRQAPGKERELVAGIFGVGSTRYADSVKGRFTISRDNSKNTVFLQMNSLRSEDTAVYYCRMSSVTRGSSDYWGQGTLVTVSS
notes: 17B05 basic + I73N; also called HER3MS0077
IC50 [13]: 0.753 nM

B4: HER3MS00082 (VHH)
VHH: EVQLVESGGGLVQPGGSLRLSCAASGSIGGLNAMAWYRQAPGKERELVAGIFGVGSTRYADSVKGRFTISRDISKNTVYLQMNSLRSEDTAVYYCAMSSVTRGSSDYWGQGTLVTVSS
notes: also called HER3MS0082
IC50 [13]: 4.05 nM

B5: HER3MS00079 (VHH)
VHH: EVQLVESGGGLVQPGGSLRLSCAASGSIGGLNAMAWYRQAPGKERELVAGIFGVGSTRYADSVKGRFTISRDISKNTVFLQMNSLRSEDTAVYYCAMSSVTRGSSDYWGQGTLVTVSS
notes: also called HER3MS0079
IC50 [13]: 3.08 nM

B6: HER3MS00078 (VHH)
VHH: EVQLVESGGGLVQPGGSLRLSCAASGSIGGLNAMAWYRQAPGKERELVAGIFGVGSTRYADSVKGRFTISRDISKNTVYLQMNSLRSEDTAVYYCRMSSVTRGSSDYWGQGTLVTVSS
notes: 17B05 basic + F79Y; also called HER3MS0078
IC50 [13]: 0.811 nM

B7: HER3MS00081 (VHH)
VHH: EVQLVESGGGLVQPGGSLRLSCAASGSIGGLNAMAWYRQAPGKERELVAGIFGVGSTRYADSVKGRFTISRDNSKNTVFLQMNSLRSEDTAVYYCAMSSVTRGSSDYWGQGTLVTVSS
notes: also called HER3MS0081
IC50 [13]: 5.89 nM

B8: HER3MS00129 (VHH)
VHH: EVQLVESGGGLVQPGGSLRLSCAASGFTFSSYPMSWVRQAPGKGPEWVSTVSPGGITTSYADSVKGRFTISRDNSKNTLYLQMNSLRPEDTAVYYCLRDLGNRGQGTLVTVSS
notes: 04C07 basic + A46E + N101G
IC50 [14]: 5.1 nM | IC50 pHER3, HRG1-β1 stimulated MCF7 (hHER3 full length [15]): 1.21e-07 M

B9: HER3MS00130 (VHH)
VHH: EVQLVESGGGLVQPGGSLRLSCAASGFTFSSYPMSWVRQAPGKGPAWVSTVSPGGITTSYADSVKGRFTISRDNSKNTLYLQMNSLRPEDTAVYYCLRDLGNRGQGTLVTVSS
notes: 04C07 basic + N101G
IC50 [14]: 0.88 nM | IC50 pHER3, HRG1-β1 stimulated MCF7 (hHER3 full length [15]): 9.38e-09 M

B10: HER3MS00132 (VHH)
VHH: EVQLVESGGGLVQPGGSLRLSCAASGFTFSSYPMSWVRQAPGKGPAWVSTVSPGGITTSYADSVKGRFTISRDNSKNTLYLQMNSLRPEDTAVYYCLRDLSNRGQGTLVTVSS
notes: 04C07 basic + N101S
IC50 [14]: 1 nM | IC50 pHER3, HRG1-β1 stimulated MCF7 (hHER3 full length [15]): 1.31e-08 M

B11: HER3MS00131 (VHH)
VHH: EVQLVESGGGLVQPGGSLRLSCAASGFTFSSYPMSWVRQAPGKGPEWVSTVSPGGITTSYADSVKGRFTISRDNSKNTLYLQMNSLRPEDTAVYYCLRDLSNRGQGTLVTVSS
notes: 04C07 basic + A46E + N101S
IC50 [14]: 5.8 nM | IC50 pHER3, HRG1-β1 stimulated MCF7 (hHER3 full length [15]): 2.26e-07 M

B12: HER3MS00068 (VHH)
VHH: EVQLVESGGGLVQPGGSLRLSCAASGTLFKINAMGWYRQAPGKRRELVALITSSDTTDYAESVEGRFTISRDNTWNAVYLQMNSLKPEDTAVYYCHSDHYSGGVPEKRVIMYGQGTLVTVSS
notes: 18G11 M99G
koff [16]: 0.001 s⁻¹ | % inhibition [17]: 84.4% | IC50 pHER3 blocking, HRG stimulated MCF7 (hHER3 full length [18]): 8.88e-08 M

B13: HER3MS00070 (VHH)
VHH: EVQLVESGGGLVQPGGSLRLSCAASGTLFKINAMGWYRQAPGKRRELVALITSSDTTDYAESVEGRFTISRDNTWNAVYLQMNSLKPEDTAVYYCHSDHYSIGVPEKRVIMYGQGTLVTVSS
notes: 18G11 M99I
koff [16]: 0.00064 s⁻¹ | % inhibition [17]: 82.2% | IC50 pHER3 blocking, HRG stimulated MCF7 (hHER3 full length [18]): 3.78e-08 M

B14: HER3MS00069 (VHH)
VHH: EVQLVESGGGLVQPGGSLRLSCAASGTLFKINAMGWYRQAPGKRRELVALITSSDTTDYAESVEGRFTISRDNTWNAVYLQMNSLKPEDTAVYYCHSDHYSLGVPEKRVIMYGQGTLVTVSS
notes: 18G11 M99L
koff [16]: 0.00081 s⁻¹ | % inhibition [17]: 83% | IC50 pHER3 blocking, HRG stimulated MCF7 (hHER3 full length [18]): 5.27e-08 M

B15: HER3MS00071 (VHH)
VHH: EVQLVESGGGLVQPGGSLRLSCAASGTLFKINAMGWYRQAPGKRRELVALITSSDTTDYAESVEGRFTISRDNTWNAVYLQMNSLKPEDTAVYYCHSDHYSVGVPEKRVIMYGQGTLVTVSS
notes: 18G11 M99V
koff [16]: 0.00084 s⁻¹ | % inhibition [17]: 80.9% | IC50 pHER3 blocking, HRG stimulated MCF7 (hHER3 full length [18]): 7.35e-08 M

B16: HER3MS00073 (VHH)
VHH: EVQLVESGGGLVQPGGSLRLSCAASGTLFKINAMGWYRQAPGKRRELVALITSSDTTDYAESVEGRFTISRDNTWNAVYLQMNSLKPEDTAVYYCHSDHYSMGVPEKRVIDYGQGTLVTVSS
notes: 18G11 M102D
koff [16]: 0.00083 s⁻¹ | % inhibition [17]: 84.4% | IC50 pHER3 blocking, HRG stimulated MCF7 (hHER3 full length [18]): 8.75e-08 M

B17: HER3MS00074 (VHH)
VHH: EVQLVESGGGLVQPGGSLRLSCAASGTLFKINAMGWYRQAPGKRRELVALITSSDTTDYAESVEGRFTISRDNTWNAVYLQMNSLKPEDTAVYYCHSDHYSMGVPEKRVIEYGQGTLVTVSS
notes: 18G11 M102E
koff [16]: 0.00049 s⁻¹ | % inhibition [17]: 82.7% | IC50 pHER3 blocking, HRG stimulated MCF7 (hHER3 full length [18]): 6.3e-08 M

B18: HER3MS00072 (VHH)
VHH: EVQLVESGGGLVQPGGSLRLSCAASGTLFKINAMGWYRQAPGKRRELVALITSSDTTDYAESVEGRFTISRDNTWNAVYLQMNSLKPEDTAVYYCHSDHYSMGVPEKRVILYGQGTLVTVSS
notes: 18G11 M102L
koff [16]: 0.00082 s⁻¹ | % inhibition [17]: 88% | IC50 pHER3 blocking, HRG stimulated MCF7 (hHER3 full length [18]): 5.76e-08 M
